Patent US20020061306A1

Target: different strains of S. pyogenes (surface of the bacteria)

B1: α2-macroglobulin (native α2M) (protein, UniProt P01023 24-1474, looked up)
chain: SVSGKPQYMVLVPSLLHTETTEKGCVLLSYLNETVTVSASLESVRGNRSLFTDLEAENDVLHCVAFAVPKSSSNEEVMFLTVQVKGPTQEFKKRTTVMVKNEDSLVFVQTDKSIYKPGQTVKFRVVSMDENFHPLNELIPLVYIQDPKGNRIAQWQSFQLEGGLKQFSFPLSSEPFQGSYKVVVQKKSGGRTEHPFTVEEFVLPKFEVQVTVPKIITILEEEMNVSVCGLYTYGKPVPGHVTVSICRKYSDASDCHGEDSQAFCEKFSGQLNSHGCFYQQVKTKVFQLKRKEYEMKLHTEAQIQEEGTVVELTGRQSSEITRTITKLSFVKVDSHFRQGIPFFGQVRLVDGKGVPIPNKVIFIRGNEANYYSNATTDEHGLVQFSINTTNVMGTSLTVRVNYKDRSPCYGYQWVSEEHEEAHHTAYLVFSPSKSFVHLEPMSHELPCGHTQTVQAHYILNGGTLLGLKKLSFYYLIMAKGGIVRTGTHGLLVKQEDMKGHFSISIPVKSDIAPVARLLIYAVLPTGDVIGDSAKYDVENCLANKVDLSFSPSQSLPASHAHLRVTAAPQSVCALRAVDQSVLLMKPDAELSASSVYNLLPEKDLTGFPGPLNDQDNEDCINRHNVYINGITYTPVSSTNEKDMYSFLEDMGLKAFTNSKIRKPKMCPQLQQYEMHGPEGLRVGFYESDVMGRGHARLVHVEEPHTETVRKYFPETWIWDLVVVNSAGVAEVGVTVPDTITEWKAGAFCLSEDAGLGISSTASLRAFQPFFVELTMPYSVIRGEAFTLKATVLNYLPKCIRVSVQLEASPAFLAVPVEKEQAPHCICANGRQTVSWAVTPKSLGNVNFTVSAEALESQELCGTEVPSVPEHGRKDTVIKPLLVEPEGLEKETTFNSLLCPSGGEVSEELSLKLPPNVVEESARASVSVLGDILGSAMQNTQNLLQMPYGCGEQNMVLFAPNIYVLDYLNETQQLTPEIKSKAIGYLNTGYQRQLNYKHYDGSYSTFGERYGRNQGNTWLTAFVLKTFAQARAYIFIDEAHITQALIWLSQRQKDNGCFRSSGSLLNNAIKGGVEDEVTLSAYITIALLEIPLTVTHPVVRNALFCLESAWKTAQEGDHGSHVYTKALLAYAFALAGNQDKRKEVLKSLNEEAVKKDNSVHWERPQKPKAPVGHFYEPQAPSAEVEMTSYVLLAYLTAQPAPTSEDLTSATNIVKWITKQQNAQGGFSSTQDTVVALHALSKYGAATFTRTGKAAQVTIQSSGTFSSKFQVDNNNRLLLQQVSLPELPGEYSMKVTGEGCVYLQTSLKYNILPEKEEFPFALGVQTLPQTCDEPKAHTSFQISLSVSYTGSRSASNMAIVDVKMVSGFIPLKPTVKMLERSNHVSRTEVSSNHVLIYLDKVSNQTLSLFFTVLQDVPVRDLKPAIVKVYDYYETDEFAIAEYNAPCSKDLGNA
Q: B1 was tested. Which % of added radiolabeled α2M bound did it give?
A: 0 to 76%
